Reference: patent publication US20170224783

Target: pyruvate dehydrogenase complex (PDHC) immuno-captured from tissue lysates of E3 mice

B1: TAT-LAD fusion protein (His tag, TAT peptide, human LAD precursor) (protein)
chain: MGSSHHHHHHSSGLVPRGSHMRKKRRQRRRGSDPQSWSRVYCSLAKRGHFNRISHGLQGLSAVPLRTYADQPIDADVTVIGSGPGGYVAAIKAAQLGFKTVCIEKNETLGGTCLNVGCIPSKALLNNSHYYHMAHGTDFASRGIEMSEVRLNLDKMMEQKSTAVKALTGGIAHLFKQNKVVHVNGYGKITGKNQVTATKADGGTQVIDTKNILIATGSEVTPFPGITIDEDTIVSSTGALSLKKVPEKMVVIGAGVIGVELGSVWQRLGADVTAVEFLGHVGGVGIDMEISKNFQRILQKQGFKFKLNTKVTGATKKSDGKIDVSIEAASGGKAEVITCDVLLVCIGRRPFTKNLGLEELGIELDPRGRIPVNTRFQTKIPNIYAIGDVVAGPMLAHKAEDEGIICVEGMAGGAVHIDYNCVPSVIYTHPEVAWVGKSEEQLKEEGIEYKVGKFPFAANSRAKTNADTDGMVKILGQKSTDRVLGAHILGPGAGEMVNEAALALEYGASCEDIARVCHAHPTLSEAFREANLAASFGKSINFE
PDHC enzymatic activity of immuno-captured PDHC, the three organs at 24 hours post-treatment, percent increase: increase in PDHC enzymatic activity (40-65%) was also evident in the three organs at 24 hours post-treatment
